The series in a line: protein stability index of a GFP-peptide fusion (yeast GPS) (PSI 1-4); higher = more stable; sorted into four equal gates, so the index is relative within each strain. An outline of the steps: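 Plasmids in a pooled yeast library fused tiled 17-residue yeast protein peptides downstream of GFP and also expressed Cherry. Mid-log cultures grown without leucine were sorted into four equal gates by GFP/Cherry fluorescence ratio. Each gate's plasmids were PCR-amplified and Illumina-sequenced, and reads were matched to strains by barcodes. The protein stability index is derived by multiplying each gate's read frequency by its gate number and summing the results.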

± gives the uncertainty stated by the source.

In the case of LDDFGEEELFEVTKEED [RRP43], the protein stability index reads like this: (doa10∆) 2.92 ± 0.11; (pdr5∆) 2.54 ± 0.15; (san1∆) 2.36 ± 0.12.

Regarding SKLLQTTLKLSPSPILL [NUT1], the protein stability index is, setting by setting: (doa10∆) 2.4 ± 0.045; (pdr5∆) 1.47 ± 0.051; (san1∆) 1.72 ± 0.091; (ubr1∆) 1.5 ± 0.046.

Turning to LGNEKNQASTSKRVYKI [CDC53], the protein stability index is, setting by setting: (pdr5∆) 2.83 ± 0.12; (san1∆) 2.92 ± 0.096.

Consider FGIYILTQGINGKEVPL [MED1], for which the protein stability index reads like this: (doa10∆) 1.48 ± 0.1; (pdr5∆) 1.45 ± 0.068; (san1∆) 2.43 ± 0.14; (ubr1∆) 1.38 ± 0.066.

For the sequence GKGRQSAKAELEKLVDH [PRE10], the protein stability index amounted to 1.82 ± 0.099 (doa10∆), 2.19 ± 0.072 (pdr5∆), 1.59 ± 0.28 (san1∆) and 1.14 ± 0.088 (ubr1∆).

For LLIADSRRPEPKKFGGK [RPS16A], the protein stability index came to 3 ± 0.091 (doa10∆), 3.12 ± 0.077 (pdr5∆), 3.23 ± 0.065 (san1∆) and 3.07 ± 0.05 (ubr1∆).

In the case of HKSPNLSLMLESPNYCN [SRB4], the protein stability index by setting is: (doa10∆) 2.28 ± 0.078; (pdr5∆) 2.65 ± 0.1; (san1∆) 2.64 ± 0.095; (ubr1∆) 2.71 ± 0.06.

NTFTWNHSLQHQNESSA [RPN4] returned a protein stability index (doa10∆) of 3.08 ± 0.056, a protein stability index (pdr5∆) of 3.19 ± 0.055, a protein stability index (san1∆) of 3.18 ± 0.058 and a protein stability index (ubr1∆) of 3.17 ± 0.037.

Sequence GDYVAYQLNGVAPFMIK [YMR129W/POM152] displayed a protein stability index (doa10∆) of 1.53 ± 0.075, a protein stability index (pdr5∆) of 1.49 ± 0.08, a protein stability index (san1∆) of 1.66 ± 0.17 and a protein stability index (ubr1∆) of 1.84 ± 0.059.

Take KRKTNIIMFVGLQGSGK [SRP54]: the protein stability index reads like this: (doa10∆) 2.69 ± 0.067; (pdr5∆) 2.78 ± 0.068; (san1∆) 3.09 ± 0.06; (ubr1∆) 2.87 ± 0.038.

For the sequence QNNFHVLIDLLNWFRTT [RGR1], the protein stability index came out at 1.99 ± 0.064 (doa10∆), 2.17 ± 0.074 (pdr5∆), 2.67 ± 0.053 (san1∆) and 2.47 ± 0.09 (ubr1∆).

In the case of PIIIYGTENTERPPLLP [YOR098C/NUP1], the protein stability index runs as follows: (doa10∆) 3.13 ± 0.09; (pdr5∆) 2.74 ± 0.1; (san1∆) 2.97 ± 0.06; (ubr1∆) 2.94 ± 0.048.

Regarding TSLVANENDKIYLLFQS [YDL116W/NUP84], the protein stability index reads like this: (doa10∆) 2.37 ± 0.058; (pdr5∆) 2.59 ± 0.05; (san1∆) 2.42 ± 0.054; (ubr1∆) 2.79 ± 0.035.

As for LRAAQQQWGNDFYKRDP [FAS2], the protein stability index came out at 2.44 ± 0.068 (doa10∆), 2.77 ± 0.051 (pdr5∆), 2.32 ± 0.12 (san1∆) and 2.71 ± 0.047 (ubr1∆).

Consider IAMPKRRMAFKPFGSAK [YLR335W/NUP2], for which the protein stability index by setting is: (doa10∆) 2.86 ± 0.052; (pdr5∆) 3.09 ± 0.064; (san1∆) 3.11 ± 0.043; (ubr1∆) 2.73 ± 0.044.

For the sequence RQGRSNRRGMLALSGTS [SNF5], the protein stability index reads like this: (doa10∆) 2.89 ± 0.068; (pdr5∆) 2.97 ± 0.057; (san1∆) 2.81 ± 0.058; (ubr1∆) 2.74 ± 0.051.

With AYILAAQKTSFEYEGVQ [RPN1], the protein stability index runs as follows: (doa10∆) 2.39 ± 0.072; (pdr5∆) 2.35 ± 0.079; (san1∆) 2.2 ± 0.15; (ubr1∆) 2.23 ± 0.08.

As to RFYELEESLTVLNCLRT [YJR042W/NUP85], the protein stability index (doa10∆) turned out to be 2 ± 0.14, the protein stability index (pdr5∆) is 2.25 ± 0.12, the protein stability index (san1∆) stood at 1.7 ± 0.29 and the protein stability index (ubr1∆) was found to be 2.62 ± 0.11.

In the case of IIKGTDVYSPEKGSWEQ [BRR2], the protein stability index by setting is: (doa10∆) 3.1 ± 0.06; (pdr5∆) 3.35 ± 0.075; (san1∆) 3.24 ± 0.11; (ubr1∆) 3.25 ± 0.13.

As for EAAAAEEGEEEEVKEEV [RPS0B], the protein stability index amounted to 3.24 ± 0.13 (doa10∆), 3.48 ± 0.049 (pdr5∆), 3.19 ± 0.069 (san1∆) and 3.37 ± 0.11 (ubr1∆).

Take NCNIKDFKPPYIYSHVN [SWP82]: the protein stability index is 2.73 ± 0.086 (doa10∆), 2.77 ± 0.086 (pdr5∆), 2.45 ± 0.11 (san1∆) and 2.91 ± 0.057 (ubr1∆).

As to DLLILTRSIKEKWLLNQ [SRB6], the protein stability index worked out at 1.12 ± 0.1 (doa10∆), 1.35 ± 0.19 (pdr5∆), 1.32 ± 0.2 (san1∆) and 1.24 ± 0.17 (ubr1∆).

On to RVTGGMKVKADRDESSP [RPS14A], for which the protein stability index stood at 3.31 ± 0.077 (doa10∆), 3.24 ± 0.063 (pdr5∆), 3.28 ± 0.038 (san1∆) and 3.26 ± 0.05 (ubr1∆).

As to IQNDIYLNDLMITKRIL [RPN12], the protein stability index (doa10∆) was determined as 2.34 ± 0.18, the protein stability index (pdr5∆) turned out to be 2.76 ± 0.14, the protein stability index (san1∆) turned out to be 2.72 ± 0.25 and the protein stability index (ubr1∆) was 2.65 ± 0.12.

For the sequence MPSRFTKTRKHRGHVSA [RPL28], the protein stability index amounted to 1.92 ± 0.06 (doa10∆), 2.19 ± 0.062 (pdr5∆), 2.09 ± 0.12 (san1∆) and 2.39 ± 0.062 (ubr1∆).

Turning to KVFIRESLSLKNIHISK [YML103C/NUP188], the protein stability index is, setting by setting: (doa10∆) 2.09 ± 0.039; (pdr5∆) 2.21 ± 0.045; (san1∆) 2.01 ± 0.057; (ubr1∆) 1.92 ± 0.03.

For LLVDKDANGVSLFELIV [YJL039C/NUP192], the protein stability index is, setting by setting: (doa10∆) 3.02 ± 0.051; (pdr5∆) 3.05 ± 0.055; (san1∆) 3.07 ± 0.049; (ubr1∆) 3.25 ± 0.037.

For AMFEICLKRGWGHPTRM [BRR2], the protein stability index is, setting by setting: (san1∆) 2.21 ± 0.14; (ubr1∆) 2.96 ± 0.18.

EPDRDENWIHVSCLSFM [LIN1] gave a protein stability index (doa10∆) of 3.12 ± 0.051, a protein stability index (pdr5∆) of 3.07 ± 0.042, a protein stability index (san1∆) of 3.08 ± 0.042 and a protein stability index (ubr1∆) of 3.11 ± 0.036.

With RQGLIHQGSGGSVMSAS [SMC3], the protein stability index runs as follows: (doa10∆) 2.75 ± 0.091; (pdr5∆) 3.14 ± 0.062; (san1∆) 2.53 ± 0.086; (ubr1∆) 2.69 ± 0.067.

DEKKDSDSSKPAFSFGT [YJL041W/NSP1] yielded a protein stability index (doa10∆) of 2.75 ± 0.076, a protein stability index (pdr5∆) of 2.49 ± 0.068, a protein stability index (san1∆) of 3.07 ± 0.067 and a protein stability index (ubr1∆) of 2.97 ± 0.042.

Turning to VQLLSKSHNAHVRCGTA [RPN2], the protein stability index worked out at 1.44 ± 0.071 (doa10∆), 1.5 ± 0.042 (pdr5∆), 1.57 ± 0.08 (san1∆) and 1.72 ± 0.048 (ubr1∆).

As to RKPMGKRINFEKIKDIH [POP1], the protein stability index was determined as 2.67 ± 0.051 (doa10∆), 3.12 ± 0.05 (pdr5∆), 3.04 ± 0.065 (san1∆) and 2.87 ± 0.038 (ubr1∆).

In the case of HGAFMDIIWLQRDLGLY [RRP6], the protein stability index is, setting by setting: (doa10∆) 1.95 ± 0.047; (pdr5∆) 1.49 ± 0.052; (san1∆) 1.23 ± 0.069; (ubr1∆) 1.46 ± 0.032.

On to KPFRQTKFKVRGSSSLY [RPL38], for which the protein stability index is 2.83 ± 0.12 (doa10∆), 3.33 ± 0.071 (pdr5∆), 3.17 ± 0.09 (san1∆) and 3 ± 0.085 (ubr1∆).

As for GQRTAYHSKRDASTPLR [RPB2], the protein stability index stood at 3.32 ± 0.092 (doa10∆), 3.1 ± 0.11 (pdr5∆), 3.12 ± 0.066 (san1∆) and 3.25 ± 0.071 (ubr1∆).

Sequence LFVCNKDPDVPLVLLQQ [POP3] came in with a protein stability index (doa10∆) of 2.57 ± 0.082, a protein stability index (pdr5∆) of 2.32 ± 0.077, a protein stability index (san1∆) of 2.26 ± 0.11 and a protein stability index (ubr1∆) of 2.27 ± 0.058.

These data come from the supplement of paper PMC9732359.
